Consider one protein from FireProtDB (doi:10.1021/bi00118a013).

For this data set the following is noted: Aspergillus oryzae (strain ATCC 42149 / RIB 40), pH 7, Fluorescence, MOPS 30 mM, reversible: yes, whole UniProt chain shown.

B1: Guanyl-specific ribonuclease T1 wild type, P00651 (protein)
chain: MMYSKLLTLTTLLLPTALALPSLVERACDYTCGSNCYSSSDVSTAQAAGYQLHEDGETVGSNSYPHKYNNYEGFDFSVSSPYYEWPILSSGDVYSGGSPGADRVVFNENNQLAGVITHTGASGNNFVECT
As usually defined, the Tm is the temperature at the midpoint of the melting transition. Take B1: for the setting “25 °C, Urea”, the denaturant m value turned out to be 1.21 kcal/mol/M and the “denaturant midpoint (higher = more stable)” value was 5.3 M. Where the note is “Thermal”, the Tm was 50.9 °C and the “unfolding enthalpy (van 't Hoff)” value came to 460 kJ/mol.
